Measured values from patent publication US10591466B2, “In vitro blood-brain barrier model” (priority 2014, dated 2020).
Values joined by “and” are separate entries in the source; they are usually repeats but may differ in a detail not shown here. Equal entries are not always repeated. “Also recorded” adds a separate entry of the source. Where two headings read alike, the source gives them in different places.

B1: VHH A12: alpaca VHH with the sequence of SEQ ID NO:3, selected from an immune library; does not recognize any human brain protein (protein)
VHH: EVQLQASGGGLAQPGGSLRLSVTVSGSIDVINNMAWYRQAPGNARELVATITSGFSTNYASSVKGRFTISRDNAKKAVYLQMNSLKPEDTADYYSKVHLIRLGAARAYDYWGQGTQVTVS

Tests used:
[1] = Isoelectric point (pI) of VHH / VHH-comprising polypeptide; assay type: physicochemical
[2] = test system: human brain extract (Sg tau 4697); experiment: Western blotting of VHH on human brain extract; assay type: binding; conditions: VHH 1 μg/ml
Method: (§1) The specificity of the VHH of the invention (A12) as compared to a control VHH recognizing brain proteins (H8/E9, identical to VHH E9, Perruchini et al.) was determined by western blotting on 3 different antigens: a human brain extract (Sg tau 4697), a mouse brain extract (Tg 4510) and on a purified protein, GFAP, a specific marker of astrocytes. […] Furthermore, VHH immunohistochemistry was performed from Tg4510 mouse tissues (Grueninger et al, 2010) harbouring NFTs. […] For western blotting, first we performed a polyacrylamide gel electrophoresis at 200 V for 45 min. Then we transferred proteins from gel to nitrocellulose membrane during 1H at 30 V. We saturated nitrocellulose membrane with PBS milk 2% for 1H under stirring. The membrane was then incubated for 1H with selected VHH diluted at 1 μg/ml in PBS milk 2%, and washed 3 times 5 min with PBS Tween. A secondary mouse mAb C23-21 recognizing Strep-tag (DI 2012-32 High-affinity monoclonal anti-Strep-Tag antibody C23.21; Girard-blanc C., Krey T., Vasiliauskaite ieva, Nato F., Lafaye P., Dartevelle S., Rey F.) was added at 1:2500 and incubated 1H at 37° C. Then after additional washes, an anti-mouse mAb labelled with peroxidase was added for 1 H. Three washes of 5 min in PBS Tween were performed.

[3] = test system: mouse brain extract (Tg 4510); experiment: Western blotting of VHH on mouse brain extract; assay type: binding; conditions: VHH 1 μg/ml
Method: as §1

[4] = target: GFAP (glial fibrillary astrocytic protein) (Homo sapiens, UniProt P14136); experiment: Western blotting of VHH on purified GFAP; assay type: binding; conditions: VHH 1 μg/ml
Method: as §1

[5] = test system: Tg 4510 mouse brain tissue; experiment: Immunohistochemistry on Tg 4510 mouse brain sections; assay type: binding; conditions: Tg 4510 paraffin-embedded mouse brain sections
Method: as §1

GFAP (glial fibrillary astrocytic protein), sequence (P14136 whole entry, species assumed): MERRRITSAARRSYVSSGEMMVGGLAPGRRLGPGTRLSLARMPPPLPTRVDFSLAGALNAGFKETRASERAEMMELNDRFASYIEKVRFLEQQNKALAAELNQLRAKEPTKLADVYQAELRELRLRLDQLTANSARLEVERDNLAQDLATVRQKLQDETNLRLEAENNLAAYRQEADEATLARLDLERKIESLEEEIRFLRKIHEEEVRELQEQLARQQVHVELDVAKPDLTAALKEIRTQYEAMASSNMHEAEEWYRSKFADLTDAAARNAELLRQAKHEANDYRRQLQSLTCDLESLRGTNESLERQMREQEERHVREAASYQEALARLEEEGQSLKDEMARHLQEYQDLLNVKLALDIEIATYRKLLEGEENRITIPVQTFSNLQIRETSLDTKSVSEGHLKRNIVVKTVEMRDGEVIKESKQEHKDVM

| Molecule | isoelectric point (pI) [1] | isoelectric point (pI) ([1]; listed as SEQ ID NO:3) | reactivity by western blotting against human brain extract [2] | reactivity by western blotting against human brain extract ([2]; listed as VHH A2) | reactivity by western blotting against mouse brain extract [3] | reactivity by western blotting against mouse brain extract ([3]; listed as VHH A2) | reactivity by western blotting against GFAP [4] | reactivity by western blotting against GFAP ([4]; listed as VHH A2) | immunoreactivity / labelling by immunohistochemistry [5] |
| --- | --- | --- | --- | --- | --- | --- | --- | --- | --- |
| RRVNRSEPTQHNLRGTGREVSVTPQSGKIISSWEVHGQQTRL [Neurovita 3] | basic | – | – | – | – | – | – | – | – |
| B1 | 9.78 and > 8.5 and 9.86 | > 9 | does not recognize any human brain protein; also recorded: no reactivity; also recorded: not to recognize any brain protein | no bands were detected | no reactivity; also recorded: not to recognize any brain protein | no bands were detected | no reactivity; also recorded: not to recognize any brain protein | no bands were detected | no immunoreactivity; also recorded: no labelling was observed; also recorded: not to recognize any brain protein |
